The record followed here is patent US20250074988A1.

In this assay the target is recombinant human PD-L1 protein (Item No. 10084-H08H, Sino Biological) (human) (UniProt Q9NZQ7). Put plainly: SPR, Biacore 8K, antibody captured on anti-human chip, huPD-L1 analyte, 1:1 model.
Sequence of recombinant human PD-L1 protein (Item No. 10084-H08H, Sino Biological) (human) (Q9NZQ7 19-238 limits assumed): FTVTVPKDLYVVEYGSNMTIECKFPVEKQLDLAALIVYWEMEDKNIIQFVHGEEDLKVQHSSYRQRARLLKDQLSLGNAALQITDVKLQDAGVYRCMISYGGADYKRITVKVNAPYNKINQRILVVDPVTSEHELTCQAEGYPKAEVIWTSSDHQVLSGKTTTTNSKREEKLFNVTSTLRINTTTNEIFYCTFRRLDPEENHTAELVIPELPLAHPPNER

Take MDX 1105 (antibody): the dissociation constant (Kd) was found to be 0.359 nM, the koff amounted to 0.00203 s⁻¹ and the on-rate (kon) was found to be 5.65e+06 M⁻¹ s⁻¹.

Usually Kd stands for the free concentration of one partner at which half of the binding sites on the other are occupied at equilibrium, for simple one-to-one binding. In general, koff refers to a measure of how fast the partners let go of each other. As usually defined, the kon is the rate constant with which the complex forms.
